From patent publication US20250011379A1

Molecular target: human C4b (human) (UniProt P0C0L5)
Test: cell-based or functional assay

Sequence of Const. No. 66: HSA-GGSSGG-hCFI-GGSSGG-hCR1; CCP8; CCP9; CCP10-(SEQ ID NO: 33)-hFH; CCP19; CCP20 (P17927 other isoform, or with tags, fused parts or gaps limits assumed): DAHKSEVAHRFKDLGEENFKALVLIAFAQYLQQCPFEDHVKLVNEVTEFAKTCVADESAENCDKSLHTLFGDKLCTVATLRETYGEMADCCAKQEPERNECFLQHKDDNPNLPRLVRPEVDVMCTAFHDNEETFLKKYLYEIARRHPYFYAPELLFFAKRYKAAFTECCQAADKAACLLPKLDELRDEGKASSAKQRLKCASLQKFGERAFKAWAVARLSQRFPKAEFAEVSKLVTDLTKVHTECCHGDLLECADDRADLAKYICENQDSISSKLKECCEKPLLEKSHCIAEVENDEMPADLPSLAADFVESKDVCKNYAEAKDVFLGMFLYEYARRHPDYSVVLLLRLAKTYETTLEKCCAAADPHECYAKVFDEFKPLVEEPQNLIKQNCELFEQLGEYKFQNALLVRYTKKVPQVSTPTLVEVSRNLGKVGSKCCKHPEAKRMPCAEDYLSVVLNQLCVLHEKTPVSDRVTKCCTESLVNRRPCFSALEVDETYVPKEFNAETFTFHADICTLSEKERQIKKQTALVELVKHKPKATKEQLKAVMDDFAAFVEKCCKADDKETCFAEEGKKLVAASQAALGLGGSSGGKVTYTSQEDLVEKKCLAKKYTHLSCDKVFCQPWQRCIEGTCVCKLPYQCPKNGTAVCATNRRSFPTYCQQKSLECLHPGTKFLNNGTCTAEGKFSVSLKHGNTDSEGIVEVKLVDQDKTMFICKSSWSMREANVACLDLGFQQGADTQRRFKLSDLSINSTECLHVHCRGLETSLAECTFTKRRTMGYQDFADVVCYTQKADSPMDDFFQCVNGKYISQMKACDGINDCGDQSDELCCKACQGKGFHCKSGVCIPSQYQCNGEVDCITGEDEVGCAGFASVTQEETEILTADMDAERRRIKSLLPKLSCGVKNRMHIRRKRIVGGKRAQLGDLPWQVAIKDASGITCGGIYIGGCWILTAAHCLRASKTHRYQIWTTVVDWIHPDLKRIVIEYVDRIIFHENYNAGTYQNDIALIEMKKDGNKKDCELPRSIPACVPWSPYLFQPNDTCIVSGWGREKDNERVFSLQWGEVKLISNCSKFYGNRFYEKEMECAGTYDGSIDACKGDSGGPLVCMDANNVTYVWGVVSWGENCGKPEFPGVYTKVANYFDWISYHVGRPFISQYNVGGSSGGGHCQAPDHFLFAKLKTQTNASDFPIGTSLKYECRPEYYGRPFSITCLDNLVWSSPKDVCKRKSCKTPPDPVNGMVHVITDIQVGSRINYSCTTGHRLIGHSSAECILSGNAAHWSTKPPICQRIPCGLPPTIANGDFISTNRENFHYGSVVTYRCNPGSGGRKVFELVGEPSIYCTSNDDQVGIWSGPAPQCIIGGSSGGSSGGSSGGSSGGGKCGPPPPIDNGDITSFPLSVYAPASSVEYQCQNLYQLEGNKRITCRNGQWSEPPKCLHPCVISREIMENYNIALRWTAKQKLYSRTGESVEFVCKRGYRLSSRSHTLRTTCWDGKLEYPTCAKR
Sequence of human C4b (human) (P0C0L5 20-1744): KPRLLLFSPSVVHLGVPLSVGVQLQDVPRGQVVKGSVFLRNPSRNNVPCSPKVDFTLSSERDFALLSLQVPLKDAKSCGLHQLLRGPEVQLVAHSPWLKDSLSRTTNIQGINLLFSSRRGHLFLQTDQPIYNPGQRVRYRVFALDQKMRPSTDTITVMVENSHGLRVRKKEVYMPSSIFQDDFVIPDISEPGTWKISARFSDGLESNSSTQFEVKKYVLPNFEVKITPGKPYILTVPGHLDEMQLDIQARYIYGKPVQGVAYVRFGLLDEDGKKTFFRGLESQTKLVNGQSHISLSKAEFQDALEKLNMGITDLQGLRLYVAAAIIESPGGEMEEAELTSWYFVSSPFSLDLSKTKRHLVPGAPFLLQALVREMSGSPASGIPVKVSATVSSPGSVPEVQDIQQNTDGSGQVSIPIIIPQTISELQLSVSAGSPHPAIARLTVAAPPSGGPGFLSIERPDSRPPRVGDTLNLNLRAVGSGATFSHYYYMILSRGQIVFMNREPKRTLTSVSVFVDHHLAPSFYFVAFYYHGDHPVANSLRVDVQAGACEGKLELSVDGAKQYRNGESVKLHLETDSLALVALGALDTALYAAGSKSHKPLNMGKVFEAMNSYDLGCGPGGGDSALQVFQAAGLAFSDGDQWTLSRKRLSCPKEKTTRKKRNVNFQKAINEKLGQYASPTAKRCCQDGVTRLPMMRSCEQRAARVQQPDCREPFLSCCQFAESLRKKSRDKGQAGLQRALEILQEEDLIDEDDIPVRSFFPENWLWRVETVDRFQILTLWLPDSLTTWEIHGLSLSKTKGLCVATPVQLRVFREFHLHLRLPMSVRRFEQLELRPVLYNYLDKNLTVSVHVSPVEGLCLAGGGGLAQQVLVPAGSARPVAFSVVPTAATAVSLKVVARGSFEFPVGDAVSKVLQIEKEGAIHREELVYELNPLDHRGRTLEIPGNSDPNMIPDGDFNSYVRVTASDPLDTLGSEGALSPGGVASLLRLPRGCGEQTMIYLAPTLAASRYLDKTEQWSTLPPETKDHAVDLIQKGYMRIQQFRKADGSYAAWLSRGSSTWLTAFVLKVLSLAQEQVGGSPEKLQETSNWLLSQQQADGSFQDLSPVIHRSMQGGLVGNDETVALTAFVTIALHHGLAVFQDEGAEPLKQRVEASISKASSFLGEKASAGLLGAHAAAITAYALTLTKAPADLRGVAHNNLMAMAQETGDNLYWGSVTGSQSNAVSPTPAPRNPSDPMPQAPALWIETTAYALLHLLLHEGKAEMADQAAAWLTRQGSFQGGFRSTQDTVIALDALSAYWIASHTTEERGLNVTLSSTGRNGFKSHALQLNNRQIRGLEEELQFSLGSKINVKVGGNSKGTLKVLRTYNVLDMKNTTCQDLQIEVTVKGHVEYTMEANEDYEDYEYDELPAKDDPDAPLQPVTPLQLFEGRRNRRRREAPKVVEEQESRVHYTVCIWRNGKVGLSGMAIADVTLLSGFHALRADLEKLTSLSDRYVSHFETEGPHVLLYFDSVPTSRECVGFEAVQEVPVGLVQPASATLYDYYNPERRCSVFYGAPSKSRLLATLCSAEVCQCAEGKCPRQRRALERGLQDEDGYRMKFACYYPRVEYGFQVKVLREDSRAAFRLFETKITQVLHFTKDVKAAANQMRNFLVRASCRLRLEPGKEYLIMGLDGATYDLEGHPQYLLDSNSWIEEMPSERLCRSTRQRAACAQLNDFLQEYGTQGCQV

| C4c EC50 [nM] | Substance |
| --- | --- |
| 679 | Const. No. 71: HSA-…-Gorilla CFI (enzyme) |
| 1610 | Const. No. 73: HSA-…-Chimp CFI (enzyme) |
| 47.1 | Const. No. 74: HSA-…-Bovine CFI (enzyme) |

Molecular target: soluble human C3b (human) (UniProt P01024)
Test: cell-based or functional assay

Sequence of soluble human C3b (human) (P01024 23-1663 limits assumed): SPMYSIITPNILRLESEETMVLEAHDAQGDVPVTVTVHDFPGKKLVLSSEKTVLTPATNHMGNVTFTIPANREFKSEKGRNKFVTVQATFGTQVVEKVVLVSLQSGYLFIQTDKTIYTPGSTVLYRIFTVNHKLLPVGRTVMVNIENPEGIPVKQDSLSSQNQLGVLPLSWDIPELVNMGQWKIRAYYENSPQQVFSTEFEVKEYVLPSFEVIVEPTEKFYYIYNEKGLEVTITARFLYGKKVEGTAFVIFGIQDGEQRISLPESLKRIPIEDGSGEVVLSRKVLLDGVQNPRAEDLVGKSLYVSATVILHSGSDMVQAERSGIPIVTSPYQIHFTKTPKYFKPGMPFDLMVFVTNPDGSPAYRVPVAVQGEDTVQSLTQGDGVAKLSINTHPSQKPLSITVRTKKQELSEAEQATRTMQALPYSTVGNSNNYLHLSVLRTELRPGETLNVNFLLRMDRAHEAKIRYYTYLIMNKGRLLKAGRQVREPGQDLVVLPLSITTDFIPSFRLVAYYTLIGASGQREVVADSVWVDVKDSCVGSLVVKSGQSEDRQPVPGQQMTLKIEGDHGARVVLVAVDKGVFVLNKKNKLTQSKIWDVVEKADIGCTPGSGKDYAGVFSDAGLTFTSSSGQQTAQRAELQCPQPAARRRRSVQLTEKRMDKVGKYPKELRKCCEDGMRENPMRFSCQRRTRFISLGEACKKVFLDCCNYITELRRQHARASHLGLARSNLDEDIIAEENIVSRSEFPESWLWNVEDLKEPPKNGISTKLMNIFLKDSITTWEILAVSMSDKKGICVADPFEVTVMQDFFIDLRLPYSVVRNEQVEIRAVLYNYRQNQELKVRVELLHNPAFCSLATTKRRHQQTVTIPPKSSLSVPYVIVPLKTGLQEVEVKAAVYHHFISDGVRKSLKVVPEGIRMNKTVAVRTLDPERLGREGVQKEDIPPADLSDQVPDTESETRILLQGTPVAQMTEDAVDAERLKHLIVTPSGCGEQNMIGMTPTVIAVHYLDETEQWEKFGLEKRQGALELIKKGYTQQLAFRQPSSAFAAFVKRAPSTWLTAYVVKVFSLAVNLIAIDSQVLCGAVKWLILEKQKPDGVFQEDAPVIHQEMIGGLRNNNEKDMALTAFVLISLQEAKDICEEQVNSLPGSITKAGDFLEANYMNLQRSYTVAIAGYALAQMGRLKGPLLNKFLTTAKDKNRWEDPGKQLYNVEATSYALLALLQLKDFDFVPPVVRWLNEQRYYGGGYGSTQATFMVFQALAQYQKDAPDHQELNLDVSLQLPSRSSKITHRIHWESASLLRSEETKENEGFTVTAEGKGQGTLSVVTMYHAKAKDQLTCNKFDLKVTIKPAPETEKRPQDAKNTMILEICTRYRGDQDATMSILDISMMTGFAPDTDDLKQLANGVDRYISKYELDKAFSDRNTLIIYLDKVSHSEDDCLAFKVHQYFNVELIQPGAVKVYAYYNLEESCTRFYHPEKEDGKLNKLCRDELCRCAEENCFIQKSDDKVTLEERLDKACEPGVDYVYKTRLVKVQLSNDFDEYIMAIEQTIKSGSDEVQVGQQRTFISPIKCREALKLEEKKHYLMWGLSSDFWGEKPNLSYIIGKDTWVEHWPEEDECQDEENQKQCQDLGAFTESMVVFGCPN

| iC3b EC50 [nM] | iC3b no cofactor EC50 [nM] | iC3b with cofactor EC50 [nM] | Substance |
| --- | --- | --- | --- |
| 18.9 |  |  | Const. No. 3: HSA-GGSSGG-hCFI; L307F (enzyme) |
| 21.4 |  |  | Const. No. 4: HSA-GGSSGG-hCFI; L307H (enzyme) |
| 24.8 |  |  | Const. No. 5: HSA-GGSSGG-hCFI; L307W (enzyme) |
| 15.8 |  |  | Const. No. 7: HSA-GGSSGG-hCFI; P433A (enzyme) |
| 40.9 |  |  | Const. No. 14: HSA-GGSSGG-hCFI; S499A (enzyme) |
| 102 |  |  | Const. No. 22: HSA-GGSSGG-hCFI; R62A (enzyme) |
| 6.39 |  |  | Const. No. 26: HSA-GGSSGG-hCFI; E401K (enzyme) |
| 6.26 |  |  | Const. No. 27: HSA-GGSSGG-hCFI; E401R (enzyme) |
| 10.6 |  |  | Const. No. 29: HSA-GGSSGG-hCFI; E401F (enzyme) |
| 16.4 |  |  | Const. No. 33: HSA-GGSSGG-hCFI; H554F (enzyme) |
| 347 |  |  | Const. No. 35: HSA-GGSSGG-hCFI; R371E (enzyme) |
| 20.3 |  |  | Const. No. 37: HSA-GGSSGG-hCFI; K51R; N52A; A55P; T59M; R61G; F64Y (enzyme) |
| 31.4 |  |  | Const. No. 39: HSA-GGSSGG-hCFI; A55P (enzyme) |
| 43.1 |  |  | Const. No. 40: HSA-GGSSGG-hCFI; T59E (enzyme) |
| 168 |  |  | Const. No. 42: HSA-GGSSGG-hCFI; L73D (enzyme) |
| 154 |  |  | Const. No. 47: HSA-GGSSGG-hCFI; R484E (enzyme) |
| 1000 |  |  | Const. No. 48: HSA-GGSSGG-hCFI; Δ(V565) > VG (enzyme) |
| 89.2 |  |  | Const. No. 49: HSA-GGSSGG-hCFI; Δ(V565) > VY (enzyme) |
| 12.8 |  |  | Const. No. 50: HSA-GGSSGG-hCFI; E416K (enzyme) |
| 12.5 |  |  | Const. No. 51: HSA-GGSSGG-hCFI; E416R (enzyme) |
| 7.38 |  |  | Const. No. 54: HSA-GGSSGG-hCFI; D395K (enzyme) |
| 12.4 |  |  | Const. No. 55: HSA-GGSSGG-hCFI; D395R (enzyme) |
| 156 |  |  | Const. No. 60: HSA-GGSSGG-hCFI; K368D (enzyme) |
| 3.12 |  |  | Const. No. 72: HSA-…-Cyno CFI (from UniProt A0A650AXN4 19-583) (enzyme) |
| 54.6 |  |  | Const. No. 73: HSA-…-Chimp CFI (enzyme) |
| 5.79 |  |  | Const. No. 74: HSA-…-Bovine CFI (enzyme) |
| 6.69 |  |  | Const. No. 91: HSA-GGSSGG-hCFI; T377A; E457G; N531G (enzyme) |
| 46.3 |  |  | Const. No. 92: HSA-GGSSGG-hCFI; N422A (enzyme) |
| 28.6 |  |  | Const. No. 95: HSA linked with CFI (CFI-HSA), wild type (enzyme) |

Further lines, the substance ahead of its results:

| Substance | iC3b EC50 [nM] | iC3b no cofactor EC50 [nM] | iC3b with cofactor EC50 [nM] |
| --- | --- | --- | --- |
| Const. No. 2: HSA-GGSSGG-hCFI; F559H (enzyme) | 28.6 |  |  |
| Const. No. 6: HSA-GGSSGG-hCFI; L307Y (enzyme) | 34.7 |  |  |
| Const. No. 15: HSA-GGSSGG-hCFI; S499K (enzyme) | 35.1 |  |  |
| Const. No. 16: HSA-GGSSGG-hCFI; S499V (enzyme) | 85.6 |  |  |
| Const. No. 21: HSA-GGSSGG-hCFI; K423R (enzyme) | 30.5 |  |  |
| Const. No. 23: HSA-GGSSGG-hCFI; R62E (enzyme) | 156 |  |  |
| Const. No. 28: HSA-GGSSGG-hCFI; E401A (enzyme) | 11.8 |  |  |
| Const. No. 34: HSA-GGSSGG-hCFI; H554K (enzyme) | 8.7 |  |  |
| Const. No. 36: HSA-GGSSGG-hCFI; A342R (enzyme) | 13.1 |  |  |
| Const. No. 38: HSA-GGSSGG-hCFI; N52A (enzyme) | 39.8 |  |  |
| Const. No. 41: HSA-GGSSGG-hCFI; L73F (enzyme) | 31.4 |  |  |
| Const. No. 45: HSA-GGSSGG-hCFI; R484A (enzyme) | 61.1 |  |  |
| Const. No. 52: HSA-GGSSGG-hCFI; D395A (enzyme) | 22.5 |  |  |
| Const. No. 53: HSA-GGSSGG-hCFI; D395G (enzyme) | 20.7 |  |  |
| Const. No. 56: HSA-GGSSGG-hCFI; D395A; D425A (enzyme) | 9.67 |  |  |
| Const. No. 57: HSA-GGSSGG-hCFI; D395A; E416A (enzyme) | 17.5 |  |  |
| Const. No. 58: HSA-GGSSGG-hCFI; D395A; E416A; D425A (enzyme) | 8.15 |  |  |
| Const. No. 59: HSA-GGSSGG-hCFI; N402D (enzyme) | 24.9 |  |  |
| Const. No. 66: HSA-GGSSGG-hCFI-GGSSGG-hCR1; CCP8; CCP9; CCP10-(SEQ ID NO: 33)-hFH; CCP19; CCP20 (from UniProt P17927 491-684; P08603 1107-1231) (enzyme) | 3.17 | 2.92 | 3.2 |
| Const. No. 70: HSA-…-Rat CFI (from UniProt Q9WUW3 19-604) (enzyme) | 17.5 |  |  |
| Const. No. 71: HSA-…-Gorilla CFI (enzyme) | 32.7 |  |  |
